From article PMC10156175 (Cell, 2023)
One block for each binder: values may come before it.

Key:
[1] = target: CUL1 (human, UniProt Q13616); assay: cryo-EM structure
[2] = target: SCF^SKP2 (CUL1-RBX1-SKP1-SKP2), pre-formed (human, UniProt Q13616;P62877;P63208;Q13309); assay: native gel or EMSA
[3] = target: SCF^FBXW7 (CUL1-RBX1-SKP1-FBXW7), pre-formed (human, UniProt Q13616;P62877;P63208;Q969H0, for the native gels: labelled with fluorescein (site not stated)); assay: native gel or EMSA
Chain of SCF^FBXW7 (CUL1-RBX1-SKP1-FBXW7), pre-formed (Q13616 whole entry, chain 1 of 3): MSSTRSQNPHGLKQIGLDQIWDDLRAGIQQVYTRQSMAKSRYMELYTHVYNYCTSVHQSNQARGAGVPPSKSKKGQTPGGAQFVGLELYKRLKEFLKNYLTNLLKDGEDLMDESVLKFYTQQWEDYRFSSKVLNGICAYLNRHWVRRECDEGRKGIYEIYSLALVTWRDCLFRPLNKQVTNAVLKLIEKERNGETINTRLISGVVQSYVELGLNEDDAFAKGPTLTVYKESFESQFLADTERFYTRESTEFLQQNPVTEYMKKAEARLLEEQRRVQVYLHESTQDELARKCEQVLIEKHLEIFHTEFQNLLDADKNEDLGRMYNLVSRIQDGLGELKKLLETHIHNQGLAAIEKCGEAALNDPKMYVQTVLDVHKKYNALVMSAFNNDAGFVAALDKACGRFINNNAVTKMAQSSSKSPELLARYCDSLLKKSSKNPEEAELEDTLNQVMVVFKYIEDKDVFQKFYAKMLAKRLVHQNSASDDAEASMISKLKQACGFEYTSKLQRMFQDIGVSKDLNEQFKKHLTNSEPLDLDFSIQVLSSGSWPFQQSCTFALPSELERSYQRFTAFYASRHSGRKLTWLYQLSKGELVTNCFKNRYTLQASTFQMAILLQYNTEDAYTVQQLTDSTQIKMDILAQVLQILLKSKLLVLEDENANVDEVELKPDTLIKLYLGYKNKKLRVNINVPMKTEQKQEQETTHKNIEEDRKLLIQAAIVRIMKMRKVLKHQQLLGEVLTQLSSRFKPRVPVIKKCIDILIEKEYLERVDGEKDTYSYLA
Chain of SCF^FBXW7 (CUL1-RBX1-SKP1-FBXW7), pre-formed (P62877 5-108, chain 2 of 3): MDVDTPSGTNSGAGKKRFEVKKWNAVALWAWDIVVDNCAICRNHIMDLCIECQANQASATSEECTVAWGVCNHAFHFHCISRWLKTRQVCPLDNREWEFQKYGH
Chain of SCF^FBXW7 (CUL1-RBX1-SKP1-FBXW7), pre-formed (P63208 whole entry, chain 3 of 3): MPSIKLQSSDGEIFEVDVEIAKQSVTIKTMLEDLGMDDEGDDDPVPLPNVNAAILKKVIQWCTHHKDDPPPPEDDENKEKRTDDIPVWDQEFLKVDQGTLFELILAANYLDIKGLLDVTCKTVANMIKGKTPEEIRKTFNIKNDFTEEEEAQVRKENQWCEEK

Chain of SCF^SKP2 (CUL1-RBX1-SKP1-SKP2), pre-formed (Q13616 whole entry, chain 1 of 4): as the sequence (Q13616 whole entry, chain 1 of 3) above
Chain of SCF^SKP2 (CUL1-RBX1-SKP1-SKP2), pre-formed (P62877 5-108, chain 2 of 4): as the sequence (P62877 5-108, chain 2 of 3) above
Chain of SCF^SKP2 (CUL1-RBX1-SKP1-SKP2), pre-formed (P63208 whole entry, chain 3 of 4): as the sequence (P63208 whole entry, chain 3 of 3) above
Chain of SCF^SKP2 (CUL1-RBX1-SKP1-SKP2), pre-formed (Q13309 whole entry, chain 4 of 4): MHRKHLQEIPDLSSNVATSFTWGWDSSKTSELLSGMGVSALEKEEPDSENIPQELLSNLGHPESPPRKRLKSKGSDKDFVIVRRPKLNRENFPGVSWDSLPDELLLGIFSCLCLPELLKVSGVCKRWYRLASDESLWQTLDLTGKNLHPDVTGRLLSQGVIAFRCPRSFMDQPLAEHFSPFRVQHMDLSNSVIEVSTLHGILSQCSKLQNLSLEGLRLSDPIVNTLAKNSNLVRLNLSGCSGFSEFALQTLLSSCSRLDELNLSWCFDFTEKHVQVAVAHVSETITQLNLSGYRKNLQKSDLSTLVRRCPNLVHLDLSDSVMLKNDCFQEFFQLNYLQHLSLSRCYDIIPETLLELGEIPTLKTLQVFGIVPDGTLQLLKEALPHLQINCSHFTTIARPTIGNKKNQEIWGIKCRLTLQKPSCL
Chain of CUL1 (Q13616 whole entry): as the sequence (Q13616 whole entry, chain 1 of 3) above

binding result [1]: binds
B1: FBXW7 (263-C) (domain or fragment)
chain: TQVKHMMQVIEPQFQRDFISLLPKELALYVLSFLEPKDLLQAAQTCRYWRILAEDNLLWREKCKEEGIDEPLHIKRRKVIKPGFIHSPWKSAYIRQHRIDTNWRRGELKSPKVLKGHDDHVITCLQFCGNRIVSGSDDNTLKVWSAVTGKCLRTLVGHTGGVWSSQMRDNIIISGSTDRTLKVWNAETGECIHTLYGHTSTVRCMHLHEKRVVSGSRDATLRVWDIETGQCLHVLMGHVAAVRCVQYDGRRVVSGAYDFMVKVWDPETETCLHTLQGHTNRVYSLQFDGIHVVSGSLDTSIRVWDVETGNCIHTLTGHQSLTSGMELKDNILVSGNADSTVKIWDIKTGQCLQTLQGPNKHQSAVTCLQFNKNFVITSSDDGTVKLWDLKTGEFIRNLVTLESGGSGGVVWRIRASNTKLVCAVGSRNGTEETKLLVLDFDVDMK

binding result [2]: binds | binding result [3]: binds
B2: CAND1 (Cullin-associated NEDD8-dissociated protein 1) (natural protein)
chain: MASASYHISNLLEKMTSSDKDFRFMATNDLMTELQKDSIKLDDDSERKVVKMILKLLEDKNGEVQNLAVKCLGPLVSKVKEYQVETIVDTLCTNMLSDKEQLRDISSIGLKTVIGELPPASSGSALAANVCKKITGRLTSAIAKQEDVSVQLEALDIMADMLSRQGGLLVNFHPSILTCLLPQLTSPRLAVRKRTIIALGHLVMSCGNIVFVDLIEHLLSELSKNDSMSTTRTYIQCIAAISRQAGHRIGEYLEKIIPLVVKFCNVDDDELREYCIQAFESFVRRCPKEVYPHVSTIINICLKYLTYDPNYNYDDEDEDENAMDADGGDDDDQGSDDEYSDDDDMSWKVRRAAAKCLDAVVSTRHEMLPEFYKTVSPALISRFKEREENVKADVFHAYLSLLKQTRPVQSWLCDPDAMEQGETPLTMLQSQVPNIVKALHKQMKEKSVKTRQCCFNMLTELVNVLPGALTQHIPVLVPGIIFSLNDKSSSSNLKIDALSCLYVILCNHSPQVFHPHVQALVPPVVACVGDPFYKITSEALLVTQQLVKVIRPLDQPSSFDATPYIKDLFTCTIKRLKAADIDQEVKERAISCMGQIICNLGDNLGSDLPNTLQIFLERLKNEITRLTTVKALTLIAGSPLKIDLRPVLGEGVPILASFLRKNQRALKLGTLSALDILIKNYSDSLTAAMIDAVLDELPPLISESDMHVSQMAISFLTTLAKVYPSSLSKISGSILNELIGLVRSPLLQGGALSAMLDFFQALVVTGTNNLGYMDLLRMLTGPVYSQSTALTHKQSYYSIAKCVAALTRACPKEGPAVVGQFIQDVKNSRSTDSIRLLALLSLGEVGHHIDLSGQLELKSVILEAFSSPSEEVKSAASYALGSISVGNLPEYLPFVLQEITSQPKRQYLLLHSLKEIISSASVVGLKPYVENIWALLLKHCECAEEGTRNVVAECLGKLTLIDPETLLPRLKGYLISGSSYARSSVVTAVKFTISDHPQPIDPLLKNCIGDFLKTLEDPDLNVRRVALVTFNSAAHNKPSLIRDLLDTVLPHLYNETKVRKELIREVEMGPFKHTVDDGLDIRKAAFECMYTLLDSCLDRLDIFEFLNHVEDGLKDHYDIKMLTFLMLVRLSTLCPSAVLQRLDRLVEPLRATCTTKVKANSVKQEFEKQDELKRSAMRAVAALLTIPEAEKSPLMSEFQSQISSNPELAAIFESIQKDSSSTNLESMDTS
modifications: for the native gels only: TAMRA-(PEG)5-LPETGG peptide joined to the amino-terminus by sortase
